In publication PMC9313104 (Biomedicines, 2022):
“Also recorded” adds a separate entry of the source. Where two headings read alike, the source gives them in different places.

Experiments:
duck Na,K-ATPase [1] = biological target: T1, duck Na,K-ATPase (Anas platyrhynchos, UniProt Q7ZYV1); type: binding; conditions: 25 °C, pH 7.5, unit not given
Procedure: (§1) Purified preparation of Na,K-ATPase was obtained from duck salt glands as described elsewhere.
(§2) Experiments were carried out at 25 °C in four buffers, as described elsewhere: (E2P buffer) 10 mM imidazole, 3 mMTris/Pi, 1 mM EDTA, 3 mM MgCl2, 0.1 mM DTT, pH 7.5; (E1/E2 buffer) 10 mM imidazole, 130 mM NaCl, 20 mM KCl, 3 mM MgCl2, 0.1 mM DTT, pH 7.5; (E1 buffer) 10 mM imidazole, 1 mM EDTA, 3 mM NaCl, 0.1 mM DTT, pH 7.5; (E2 buffer) 10 mM imidazole, 1 mM EDTA, 3 mM KCl, and 0.1 mM DTT, pH 7,5. […] Aliquots (2.6 μL) of ligands were injected into a 0.24 mL cell containing the protein solution to achieve a complete binding isotherm. […] Equivalent amounts of DMSO was added to protein solutions to avoid thermal effects of dissolution.
(§3) The effective heat of binding was obtained by subtracting the heat of dilution from the heat of reaction. MicroCal Origin software was used to fit isothermal titration curves. […] The Gibbs energy and enthalpy changes […] were estimated according to the equations: ∆G = −RT lnKa and ∆G = ∆H − T∆S.

Na,K-ATPase [2] = tested on: Na,K-ATPase; parameters: method as in 2 sources, one per row (each row's own in cited_ref): ref [10],[18] = [10]; PMID 30210292; doi:10.3389/fnmol.2018.00302; 10. Barykin E.P. Petrushanko I.Y. Kozin S.A. Telegin G.B. Chernov A.S. Lopina O.D. Radko S.P. Mitkevich V.A. Makarov A.A. Phosphorylation of the Amyloid-Beta Peptide Inhibits Zinc-Dependent Aggregatio || [18]; PMID 27296892; doi:10.1038/srep27738; 18. Petrushanko I.Y. Mitkevich V.A. Anashkina A.A. Adzhubei A.A. Burnysheva K.M. Lakunina V.A. Kamanina Y.V. Dergousova E.A. Lopina O.D. Ogunshola O.O. Direct Interaction of Beta-Amyloid with Na,K-ATP ||| ref [39] = [39]; PMID 26297827; doi:10.1016/j.febslet.2015.08.011; 39. Klimanova E.A. Petrushanko I.Y. Mitkevich V.A. Anashkina A.A. Orlov S.N. Makarov A.A. Lopina O.D. Binding of Ouabain and Marinobufagenin Leads to Different Structural Changes in Na,K-ATPase and De; conditions: ref [39]; cited from earlier work
duck Na,K-ATPase [3] = biological target: T1, duck Na,K-ATPase; assay: Isothermal titration calorimetry (MicroCal iTC200), Aβ42 binding to Na,K-ATPase in different states; conditions: 25 °C; for T∆S, entropy variation: calculated from ∆G = ∆H − T∆S; for ∆H, enthalpy variation: three to four measurements, SD did not exceed ±10%
Procedure: Briefly, the peptide was dissolved in hexafluoroisopropanol (Fluka), dried, and stored at −80 °C. Before the experiment, the peptide was dissolved in DMSO for 1 h and then diluted in the buffer solution.
as §1, §2, §3

Na,K-ATPase [4] = conditions: ref [18]; cited from earlier work
Description: (§4) Here we study the binding interface of Aβ with Na,K-ATPase. Na,K-ATPase creates a sodium/potassium gradient, and inhibition of pump activity by Aβ leads to impairment of electrotonic properties of neurons.

[5] = tested on: neuroblastoma cells SH-SY5Y; conditions: ref [18]; cited from earlier work
Description: as §4

[6] = hexafluoroisopropanol, dried, DMSO for 1 h, diluted in buffer; ref [18]; cited from earlier work
Procedure: Aβ42 peptide was synthesized by Biopeptide. […] Briefly, the peptide was dissolved in hexafluoroisopropanol (Fluka), dried, and stored at −80 °C. Before the experiment, the peptide was dissolved in DMSO for 1 h and then diluted in the buffer solution.

[7] = Na,K-ATPase in complex with Aβ42
[8] = enzyme in E2P conformation (without Aβ42)
[9] = OBN state (26 µM ouabain), pH 7.5

Molecule	T∆S (duck Na,K-ATPase [1]; [7])	∆H (duck Na,K-ATPase [1]; [7])	T∆S (duck Na,K-ATPase [1]; [8])	∆H (duck Na,K-ATPase [1]; [8])	Na,K-ATPase conformation bound (Na,K-ATPase [2])	T∆S, entropy variation (duck Na,K-ATPase [3]; E1/E2 state, pH 7.5) [kcal/mol]	∆H, enthalpy variation (duck Na,K-ATPase [3]; E1/E2 state, pH 7.5) [kcal/mol]	T∆S, entropy variation (duck Na,K-ATPase [3]; E1 state, pH 7.5) [kcal/mol]	∆H, enthalpy variation (duck Na,K-ATPase [3]; E1 state, pH 7.5) [kcal/mol]	T∆S, entropy variation (duck Na,K-ATPase [3]; E2P state, pH 7.5) [kcal/mol]	∆H, enthalpy variation (duck Na,K-ATPase [3]; E2P state, pH 7.5) [kcal/mol]	Ka, affinity constant (duck Na,K-ATPase [3]; E2 state, 10 mM imidazole, 1 mM EDTA, 3 mM KCl, 0.1 mM DTT, pH 7.5, measured three to four times, SD did not exceed ±20%) [M⁻¹]	T∆S, entropy variation (duck Na,K-ATPase [3]; E2 state, pH 7.5) [kcal/mol]	∆H, enthalpy variation (duck Na,K-ATPase [3]; E2 state, pH 7.5) [kcal/mol]	T∆S, entropy variation (duck Na,K-ATPase [3]; [9]) [kcal/mol]	∆H, enthalpy variation (duck Na,K-ATPase [3]; [9]) [kcal/mol]	Aβ42 binding to Na,K-ATPase in complex with ouabain compared with free enzyme (duck Na,K-ATPase [3]; OBN state, sequential titration with ouabain then Aβ42 in E2P buffer)	effect of complex formation on enzyme hydrolytic activity (Na,K-ATPase [4])	effect of exogenous Aβ42 on enzyme transport and hydrolytic activity [5]	form present in the solution [6]
C[C@@H]1O[C@@H](O[C@H]2C[C@@H](O)[C@]3(CO)[C@H]4[C@H](O)C[C@]5(C)[C@@H](C6=CC(=O)OC6)CC[C@]5(O)[C@@H]4CC[C@]3(O)C2)[C@H](O)[C@H](O)[C@H]1O [ouabain]	−10.8	−20.2 ± 0.7	−4.2	−13.7 ± 0.2	binds predominantly to the E2P conformation	–	–	–	–	–	–	–	–	–	–	–	–	–	–	–
Aβ42: Aβ42 peptide was synthesized by Biopeptide	–	–	–	–	–	5.48	-2.54	6.02	-1.54	6.19	-1.59	490000	5.55	-2.21	6.87	-1.21	in the same way as the free enzyme; also recorded: did not change	dose-dependent inhibition of enzyme hydrolytic activity	pronounced decrease in enzyme transport and hydrolytic activity	mainly in the monomeric form
